In patent US8349318B2, “Use of specifically engineered enzymes to enhance the efficacy of prodrugs” (The Board of Trustees of the University of Illinois, priority 2008, dated 2013):

Key:
SKBR-3 = assay: MTS cytotoxicity assay in breast cancer-derived cell line; type: cell-based, human; conditions: SKBR-3, 96 hours
Protocol: The cells were then exposed to varying amount of BVdU for 96 hours. […] Cell viability was measured using the MTS cytotoxicity assay according to the manufacturer's instructions (Promega). […] MTS was reduced by cellular dehydrogenase into formazan, which is soluble in tissue culture medium. […] Since the production of formazan is proportional to the number of living cells, the intensity of the produced color is a good indication of the viability of the cells.

parent 293 cells = assay: Proliferation of parental 293 cells treated with nucleoside analogs; type: cell-based, human; conditions: highest tested concentration of 50 μM
Protocol: Next, whether the dCK-S74E/R104M/D133A variant could inhibit cell growth in the presence of NAs including BVdU was tested. Human 293 cells were stably transfected with a recombinant expression construct encoding the dCK-S74E/R104M/D133A protein. The proliferative capacity of the stably transfected cell line was compared to the parental 293 cells after treating the cells with several nucleoside analogs such as AraC, gemcitabine, and BVdU. Since some of the nucleosides were first dissolved in the solvent DMSO, equal amounts of DMSO were used as control.

[1] = McSorley et al., 2008; cited from earlier work
[2] = Kinetic characterization of dCK variants, substrate D-dG; type: biochemical
[3] = Kinetic characterization of dCK variants, substrate L-dT; type: biochemical
[4] = Kinetic characterization of dCK variants, substrate D-dT; type: biochemical
[5] = Kinetic characterization of dCK variants, substrate D-dC; type: biochemical
[6] = Kinetic characterization of dCK variants, substrate gemcitabine; type: biochemical
[7] = Kinetic characterization of dCK variants, substrate AraC; type: biochemical
[8] = Iyidogan, et al., 2008; read-out: Km for D-dT; cited from earlier work
[9] = Kinetic characterization of dCK variants, substrate D-dA; type: biochemical
R104Q-D133A dCK = target: T1, R104Q-D133A dCK (Homo sapiens, UniProt P27707, D133A/R104Q); assay: Kinetic assay of nucleoside phosphorylation by R104Q-D133A dCK; type: biochemical; conditions: nucleoside 200 uM
T1 construct: made in house
T1 sequence (P27707 whole entry R104Q/D133A): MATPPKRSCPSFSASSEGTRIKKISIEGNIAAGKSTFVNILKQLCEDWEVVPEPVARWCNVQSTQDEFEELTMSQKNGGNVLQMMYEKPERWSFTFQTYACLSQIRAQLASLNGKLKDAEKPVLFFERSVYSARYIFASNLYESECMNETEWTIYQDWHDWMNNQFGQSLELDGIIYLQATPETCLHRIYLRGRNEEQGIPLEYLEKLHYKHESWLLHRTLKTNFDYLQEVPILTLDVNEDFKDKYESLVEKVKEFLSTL

dCK R104L/D133A = dCK R104L/D133A (Homo sapiens, UniProt P27707, D133A/R104L); assay: Kinetic characterization of nucleoside phosphorylation by dCK R104L/D133A; conditions: Table 9
Chain of dCK R104L/D133A (P27707 whole entry R104L/D133A): as the sequence (P27707 whole entry R104Q/D133A) above, with Q104L counted along it

[10] = Table 8, nucleoside 200 mM, ATP 1 μM [sic]
[11] = nucleoside concentration of 200 μM, ATP 1 mM

Q: What does the source list for `O=c1[nH]c(=O)n([C@H]2C[C@H](O)[C@@H](CO)O2)cc1/C=C/Br` [BVdU, (E)-5-(2-bromovinyl)-2′-deoxyuridine]?
A: effect on cell viability / proliferation (SKBR-3): no detrimental effect; inhibition of growth (parent 293 cells): did not inhibit the growth

Q: For “dCK S74E: dCK S74E mutant mimicking the Ser74 phosphorylated state [reference compound]”, which “increase of the rate of phosphorylation of dC” value [1] is on record?
A: 11 fold

Q: For “WT: wild type human deoxycytidine kinase, SEQ ID NO:1 [reference compound]”, which “rate of phosphorylation, D-dG” value [2, 10] is on record?
A: 0.94 s⁻¹

Q: What about the “kobs D-dG” value [2, 11] of the same molecule?
A: 0.94 ± 0.18 s⁻¹

Q: What about the “Rel kobs (D-dG)” value ([2]; relative to WT) of the same molecule?
A: 1

Q: And the “kobs L-dT” value [3, 11]?
A: 0.017 ± 0.023 s⁻¹

Q: And the “Rel kobs (L-dT)” value ([3]; relative to WT)?
A: 1

Q: And the “kobs D-dT” value [4, 11]?
A: 0.008 ± 0.001^b sec^−1

Q: What about the “Rel kobs (D-dT)” value ([4]; relative to WT) of the same molecule?
A: 1

Q: What about the “rate of phosphorylation, D-dC” value [5, 10] of the same molecule?
A: 0.03 s⁻¹

Q: And the “kobs D-dC” value [5, 11]?
A: 0.03 ± 0.01^b sec^−1

Q: What about the “Rel kobs (D-dC)” value ([5]; relative to WT) of the same molecule?
A: 1

Q: What about the “rate of phosphorylation, Gem” value [6, 10] of the same molecule?
A: 0.39 s⁻¹

Q: What about the “kobs Gem” value [6, 11] of the same molecule?
A: 0.39 ± 0.01 s⁻¹

Q: What about the “Rel kobs (Gem)” value ([6]; relative to WT) of the same molecule?
A: 1.00

Q: And the “kobs AraC” value [7, 11]?
A: 0.30 ± 0.04^b sec^−1

Q: And the “Rel kobs (AraC)” value ([7]; relative to WT)?
A: 1.00

Q: And the Km [8]?
A: > 3000 µM

Q: What about the “kobs D-dA” value [9, 11] of the same molecule?
A: 1.19 ± 0.01 s⁻¹

Q: What about the “Rel kobs (D-dA)” value ([9]; relative to WT) of the same molecule?
A: 1

Q: With `Cc1cn([C@H]2C[C@H](O)[C@@H](CO)O2)c(=O)[nH]c1=O` [D-dT, D-thymidine] as the molecule, how does the “kcat R104Q-D133A dCK (with 1 mM ATP as donor)” value (R104Q-D133A dCK) read?
A: 0.15 s⁻¹

Q: And the “kcat, R104L/D133A” value (dCK R104L/D133A)?
A: 3.20 ± 0.07 s⁻¹

Q: What about the Km (dCK R104L/D133A; read-out: Km, R104L/D133A) of the same molecule?
A: 24.3 ± 3.6 µM
